According to the nanobody polyreactivity screen of Harvey et al. (2022):

Assay: yeast display, Sf9 membrane polyspecificity reagent, FACS + sequencing; frameworks hold sequencing errors
In short: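 Galactose-induced (36–48 hours) yeast carrying a synthetic nanobody display library were exposed to 10% biotinylated, detergent-solubilized Sf9 membrane reagent at 4 °C for 1 hour. FACS followed streptavidin microbead enrichment, using low and high (top ~1%) gates for expression (anti-HA) and reagent binding (streptavidin). Colony PCR, MiSeq 2 × 250 sequencing and CDR-length filtering followed. Labels for polyreactivity reflect the gate of origin.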

Row | Sequence | polyreactivity (PSR sort gate)
1 | QVHLVESGGGLVQAGGSLRLSCAASGSTFYRYAMGWYSQAPGKERELVAAISKRGGSTYYADSVKGRFTISRDNAKNTVYLQMNSLKPEDTAGQYCAADPFDYGGGDDYWGQGTQVTVSS | high polyreactivity
2 | QVHLVESGGGLVQAGGSLRLSCAASGSTIRRYAMGWYRQAPGTERELVASITNRGGSTYYADSVKGLFTISRDNAKNTFYLQMNSLKPEDTAVYYCAKKGVYGPLNEYWGQGTQVTVSS | high polyreactivity
3 | QVHLVESGGGLVQAGGSLRLSCAASGSTLYWYAMGWYRQAPGKERELVARITVSGGSTSYADSVKGRFTISRDNAKNTVYLQMNSLKPEDTAVYYCAARRYWTGYYYWGQGTQVTVSS | high polyreactivity
4 | QVHLVESGGGLVQAGGSLRLSCAASGSTSRKYTMGWYRQAPGKERELVATISWSGGSTNYADSVKGRFTISRDNAKNTVYLQMNSLKPEETAVYYCKAYVSPRYRGSRYYYWGQGTQVTVSS | high polyreactivity
5 | QVHLVESGGGLVQAGGSLRLSCAASGSTVTLYAMGWYRQAPGKERELVASITWSGSTYADSVKGRFTISRDNAKNTVYLQMNSLKPEDTAVYYCNTDPRSVVGWYDYWGQGTQVTVSS | low polyreactivity
6 | QVHLVESGGGLVQAGGSLRLSCAASGTIYYVYSMVWYRQAPGKERELVASINKSGGSTYYADSVKWRFTISRDNAKNTVYLQMNSLKREDTAVYYCAARTGWPRVGFQYPAHVGFDYWGQGTQVTVSS | low polyreactivity
7 | QVHLVESGGGLVQAGGSLRLSCAASGYVMGWYRQAPGKERELVAAITRGTSTYYADSVKGRFTISRDNAKNTVYLQMNSLKPEDTAVYYCAARTTSGEWPPGNIGTYLYDYWGQGTQVTVSS | low polyreactivity
8 | QVHLVESGGGLVQAGGSLRLSCAAYGRIFTLNAMGWDRQAPGKERGWVARISRTGGSTYYADSVKGRFTISRDNAKNTVYLQMNSLKPEDTAVYYCAAAGFSRQPGAGAYYYWGQCTQVTVSS | high polyreactivity
9 | QVHLVESGGGLVQAGGSLRLSCADCGFTLYGNAMGWYRQAPGKVRELVAAITKSGGRTYYADSVKGRFTISRDNAKNTVYLQMNSLKPEDTAVYYCAVRAKSRYDYWGQGTQVTVSS | high polyreactivity
10 | QVHLVESGGGLVQAGGSLRLSCADSGFTFRRYTMGWYRQAPGKERELVAVISASGGSTYYADSVKGRFTISRDNAKNTVYLQMNSLKPEDTAVYYCNTRAVVIGGDYWGQGTQVTVSS | high polyreactivity
11 | QVHLVESGGGLVQAGGSLRLSCADSGSIFRYYAMGWYRQAPGKEREMFARISWSGVSTYYADSVKGRFTISRDNAKNTVYLQMNSLKTEDTADYYCAGVDFRGYRYDLDYWGQGTQVTVSS | high polyreactivity
12 | QVHLVESGGGLVQAGGSLRLSCAPSGNIFFSNAMGWYRQAPGKERELVASISQSGGSTYYADSLKGRFTISRDNAKNTVYFQMNSLKPEDTAVYYCNAFSITFYDFNSWGQGTQVTVSS | low polyreactivity
13 | QVHLVESGGGLVQAGGSLRLSCASSASIINVYAMGWYRQAPGKEREFVADINYSGGSTYADSVKGRFTISRDNAKNTVYLQMYSVKPEDTAVYYCADVYGYLYYELYYWGQGTQVTVSS | low polyreactivity
14 | QVHLVESGGGLVQAGGSLRLSCDASGRTFFPYGMGWYRQAPGKQRELVATISWSGGSTHYADSVKGRFTISRDNAKNTVYLQMNSLKPEDNAVYYCNKTSFLVKLDYWGQVTQVTVSS | high polyreactivity
15 | QVHLVESGGGLVQAGGSLRLSCDASGSIFPVNAMGWYRQAPGKERELVATITWRGGRTYYADSVKGRFTISRDNAKNTVYLQMNSLKPEDTAVYYCAARLLYRHFGYWGQGTQVTVSS | high polyreactivity
16 | QVHLVESGGGLVQAGGSLRLSCGASGIIFFHYAMGWYRQAPGKERELVAAITWSGGYTYYADSVKGRFTISRDNAKNTVYLQMNSLKPEDTAVYYCNAVLHRRLYDYWGQGTQVTVSS | high polyreactivity
17 | QVHLVESGGGLVQAGGSLRLSCGASGSIFFIYAMGCYRQAPGKERELVATITSGGSTYYADSLKGRFTISRDNAKNTVYLQMNSLKPEDTAVYYCAVDEYFAFDYWGLGTQVTVSS | low polyreactivity
18 | QVHLVESGGGLVQAGGSLRLSCPASGRIFAIYAAMGWTRQAPGKERELVAAISSGDNTNYADSVKGRFTISRDNAKNTVYLQLNSLKPDDTAVYYCNTNYGPTHRARYYYWGQGTQVTVSS | low polyreactivity
19 | QVHLVESGGGLVQAGGSLRLSCPASGRIFRVYAMGWYRQEPGKERELVAAISYSGGRTFYADSVKGRFTISRDNAKNTVYFQMNSLKPEDTAVYYGAAKSYYTQALPPFDYWGQGTQVTVSS | low polyreactivity
20 | QVHLVESGGGLVQAGGSLRLSCPASGSTFYDNAMGCYRQPPGKERELVARIRWSGVRTYYADSVKGRFTISRDNAKNTVYLQMNSLKPEDTAVYYCAAGRPSRHWWSLDYYFWGQGTQVTVSS | low polyreactivity

Row | Sequence | polyreactivity (PSR sort gate)
21 | QVHLVESGGGLVQAGGSLRLSCSASGRTFPYNAMGWYRQSPGKERELVAAISWRGGSTYYADSVKGRFTISRDNAKNTVYLQMNSLKPEDTAVYYCNALYPVSYDHRGDYWGQGTQVTVSS | high polyreactivity
22 | QVHLVESGGGLVQAGGSLRLSCSASGSIFGKYAMGWYRQAPGKERELVAAISWSGTSTYYADSVKGRFTISRDNAKNTVYLQMNSLKPEDTAVYYCAAESRVYGYNYWGQGTQVTVSS | high polyreactivity
23 | QVHLVESGGGLVQAGGSLRLSCSASGSILKYYAMGWYRQAPGKERELVAAISRSGGSTYYADSVKGRFTISRDNAKNTVYLHMNSLKPEDTAVYYCAAYYNFPYHGSDYWGQGTEVTVSS | high polyreactivity
24 | QVHLVESGGGLVQAGGSLRLSSAASGFIFLQYAMGWYRQAPGKEREFVAVISRSGGGTYYADSVKGRFTISRDNAKNTVYLQMNSLKPEDTAVYYCAALGATRSRYDYWGQGTQVTVSS | high polyreactivity
25 | QVHLVESGGGLVQAGGSLRLSSAASGRIFKYYTMGWYRHAPGKERELVASITGTGGSTYYADSVKGRFTISRDNAKNTVYLQMNRLKPEDTAVYYCAARLSVLGGYRGRNAWRFDHWGQGTKVTVSS | high polyreactivity
26 | QVHLVESGGGLVQAGGSLRLSSAASGSIFDGNGMGWYRQAPGKERELVASISGDGSTNYADSVKGRFTISRDNAKNTVYLQMNSLKPEDTAVYYCNARSYLTRPWWWGGPYDYWGQGTKVTVSS | low polyreactivity
27 | QVHLVESGGGLVQAGGSLRLSSAASGSIFQVYAMGWYRQAPGTERELVAGISRGGSTYYADSVKGRFTISRDNAKNTVYLQMNSLKPEDTAVYYCAARGGGIRAYGSNRRSFYYWGQGTQVTVSS | high polyreactivity
28 | QVHLVESGGGLVQAGGSLRLSSAASGSNFGLNAMGWSRQAPGKERELVAAITWSGGSSTYYADTVKGRLTISRDNAKNSVYLQMKSLKPEDTAVYYCAARRVFIPYYVRFYYWGQGTQVTVSS | high polyreactivity
29 | QVHLVESGGGLVQAGGSLRLSSAASGSTFVFNAMAWYRQAPGKESELVAGISWSGGSTYYADSVKGRFTISRDNSKNTVYLQMKSLKPEDTAVYYCAVDGYFWGYYERDYSGQGTQVTVSS | low polyreactivity
30 | QVHLVESGGGLVQAGGSLRLSSADTGYTFVNYARGWNRQAPGKERELVAAISDRGGSMYYADAVKGRFTISRDNAKNTVDLQMNSLKPEETAVYYCAAQHTGKYTGTRYFYWGQGTQVTVSS | high polyreactivity
31 | QVHLVESGGGLVQAGGSLRLTCAASGSTFVPYAMGWYRQAPGKERELVAAISTSSGGTYYADSVKGRFTISRDNEKNTVYLQMNSLKPEDTAVYYCAAELVYVPHWLIYDYWGQGTQVTVSS | high polyreactivity
32 | QVHLVESGGGLVQAGGTLRLRCAASGSTFERYVMGWYRHPLGKKGSWLPVLNHNGCSTYYAESVKGRFTISRDNAKNTVYLQMNSLKQEVTAVYYCAAYFRTVLDYGSWGQGTQVTVSS | low polyreactivity
33 | QVHLVESGGGLVQAGGTLRLSCAASGLFARNAMGWYRQAPGKERELVAAINRSGGSTYYADSVKGRFTISRDNAKNTVYLQMNSLKPEDTAVYYCNKAFTHTKDRSPIAYEYGYWGQGTQVTVSS | low polyreactivity
34 | QVHLVESGGGLVQAGRSLRLSCAASGSTFSYNAMGWSRQAPGKERELVAAISNGGSTNYADSVKGRFTISRDNAKYTVFLQMNSLKPEDTAVYYCAAHTYSELSWLVVYPYDYWGQGTQVTVSS | low polyreactivity
35 | QVHLVESGGGLVQARVSLRLSCAASGSTFFVYTMGWYRQAPGKETEFVATIRRGGNTYADSVKGRFTISRDNAKNSVYLQMNSLKPEDTAVYFCAVVVYQGFRSKYYYWGQGTQVTVSS | high polyreactivity
36 | QVHLVESGGGLVQPGGTLRLTCAASGSTFGSNARGWYRLAPGKESELVAAITRRGGSTYYADSVKGRFTISRDNAKNTVDLQMNSLKPEDTAVYYCDNVYYYLYTRYDYWGQGTEVTVSS | low polyreactivity
37 | QVHLVESGGRLVQAGGSLRLICAASGRIFFTYAMGWYRQAPGKDRELVASITGSGGSTYYADSVKGSFTISRDNAKNTVYLQMNRLKPEDTAVYYCAAALFRRQLYRKFYYWGQGTQVTVSS | low polyreactivity
38 | QVHLVESGGRLVQAGGSLRLSCAASGFTFSYYAMGWYRQAPGKERELVASISRSVNTYYADSVKGRFTISRDNAKNTVYLQMNSLKTEDTAVYYCAAKRISYYSYNFDYWGQGTQVTVSS | high polyreactivity
39 | QVHLVESGGWLVQAGGSLRLSCAASGLTFYNYAMGWYRPAPGKEREFVAAISRSGGTTYYADSVKGRFTISRDNAKYTVYLQMISLKPEDTAVYYCNAQWWRYWPSQVIFDYWGQGSQVTVSS | high polyreactivity
40 | QVHLVESGRGLFQAGGSLRLSCAASGFTFTTYVMGWYRQAPGKERELVAAITSGGSTNYADSVKGRFTISRDNAKNTVFLQMNSLKPEDTAVYFCNAVKDDGKGSYPNLHVFDYDYWGQGTQVTVSS | low polyreactivity
